One data set has as its target T1, Lcc7 (Lentinula edodes, UniProt R9WS76).
T1 construct: full cDNA ORF (560 residues) in pPIC3.5K, secreted from Pichia pastoris GS115 and purified; signal peptide predicted
T1 sequence (R9WS76 30-560): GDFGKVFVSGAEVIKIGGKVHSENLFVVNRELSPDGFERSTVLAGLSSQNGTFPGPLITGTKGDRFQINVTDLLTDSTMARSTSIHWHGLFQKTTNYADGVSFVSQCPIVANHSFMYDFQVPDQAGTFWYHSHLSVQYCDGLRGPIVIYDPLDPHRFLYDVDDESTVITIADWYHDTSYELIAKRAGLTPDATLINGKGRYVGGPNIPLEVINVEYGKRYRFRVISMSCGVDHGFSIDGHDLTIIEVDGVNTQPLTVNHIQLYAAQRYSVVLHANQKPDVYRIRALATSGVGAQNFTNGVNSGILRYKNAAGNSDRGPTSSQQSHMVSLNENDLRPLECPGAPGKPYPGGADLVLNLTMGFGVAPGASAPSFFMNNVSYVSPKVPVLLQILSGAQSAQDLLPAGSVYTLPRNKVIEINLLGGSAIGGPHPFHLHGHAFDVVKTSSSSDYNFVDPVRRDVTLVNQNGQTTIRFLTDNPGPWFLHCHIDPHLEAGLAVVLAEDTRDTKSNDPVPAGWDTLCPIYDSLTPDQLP
Kind of data set: ABTS oxidation in presence of co-solvent. Format: biochemical. As to conditions: 1 mM ABTS, 1x McIlvaine buffer pH 4, 30 °C; co-solvent effect, non-specific. The source says: ABTS oxidation in presence of co-solvent on Lcc7

The next data set deals with T2, Lcc5 (Lentinula edodes, UniProt R9WU11).
T2 construct: full cDNA ORF (515 residues) in pPIC3.5K, secreted from Pichia pastoris GS115 and purified; signal peptide predicted
T2 sequence (R9WU11 22-515): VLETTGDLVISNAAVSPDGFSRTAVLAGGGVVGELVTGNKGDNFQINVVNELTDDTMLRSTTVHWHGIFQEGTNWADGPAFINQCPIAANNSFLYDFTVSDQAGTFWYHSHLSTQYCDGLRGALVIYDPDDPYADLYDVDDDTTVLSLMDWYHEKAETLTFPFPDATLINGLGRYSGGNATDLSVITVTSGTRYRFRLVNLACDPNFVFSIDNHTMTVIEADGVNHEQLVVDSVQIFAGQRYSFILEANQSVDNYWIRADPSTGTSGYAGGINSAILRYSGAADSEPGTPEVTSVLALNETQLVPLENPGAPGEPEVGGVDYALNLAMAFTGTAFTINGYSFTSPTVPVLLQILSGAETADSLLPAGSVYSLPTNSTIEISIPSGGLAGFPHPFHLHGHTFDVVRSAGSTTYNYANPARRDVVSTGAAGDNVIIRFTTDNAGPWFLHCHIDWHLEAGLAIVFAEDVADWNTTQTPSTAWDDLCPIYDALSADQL
Kind of data set: ABTS oxidation in presence of co-solvent. Format: biochemical. As to conditions: 1 mM ABTS, 1x McIlvaine buffer pH 4, 30 °C; co-solvent effect, non-specific. The source says: ABTS oxidation in presence of co-solvent on Lcc5

Another data set addresses T3, Lcc4A (Lentinula edodes, UniProt R9WT55).
T3 construct: full cDNA ORF (527 residues) in pPIC3.5K, secreted from Pichia pastoris GS115 and purified; signal peptide predicted
T3 sequence (R9WT55 18-527): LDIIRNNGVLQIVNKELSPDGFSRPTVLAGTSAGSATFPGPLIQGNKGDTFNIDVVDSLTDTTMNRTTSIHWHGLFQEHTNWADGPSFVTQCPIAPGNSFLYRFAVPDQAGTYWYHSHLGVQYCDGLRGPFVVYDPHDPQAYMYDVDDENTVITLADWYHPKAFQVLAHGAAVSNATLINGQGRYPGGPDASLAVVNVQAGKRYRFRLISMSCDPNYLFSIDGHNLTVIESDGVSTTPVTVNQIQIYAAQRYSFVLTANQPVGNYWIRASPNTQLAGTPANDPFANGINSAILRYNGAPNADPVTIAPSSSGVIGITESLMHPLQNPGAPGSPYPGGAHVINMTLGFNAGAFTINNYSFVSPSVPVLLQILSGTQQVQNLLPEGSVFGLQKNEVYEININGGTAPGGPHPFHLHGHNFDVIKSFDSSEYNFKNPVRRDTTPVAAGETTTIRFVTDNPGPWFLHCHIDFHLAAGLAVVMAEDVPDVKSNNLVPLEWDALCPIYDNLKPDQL
Kind of data set: ABTS oxidation in presence of co-solvent. Format: biochemical. The conditions noted are these: 1 mM ABTS, 1x McIlvaine buffer pH 4, 30 °C; co-solvent effect, non-specific. From the text:
ABTS oxidation in presence of co-solvent on Lcc4A

Substrate in data set [1]: N[C@@H](Cc1ccc(O)c(O)c1)C(=O)O
Kind of data set: spectrophotometric oxidation assay. The class given is biochemical, Lentinula edodes. As to conditions: 1x McIlvaine buffer pH 4, 30 °C. From the text: (§1) spectrophotometric oxidation assay on Lcc4A

Substrate in data set [2]: COc1cccc(OC)c1O
Kind of data set: spectrophotometric oxidation assay. Format: biochemical, Lentinula edodes. As to conditions: 1x McIlvaine buffer pH 4, 30 °C.
Text: as §1

Substrate in data set [3]: Oc1ccccc1O
Kind of data set: spectrophotometric oxidation assay. Format: biochemical, Lentinula edodes. As to conditions: 1x McIlvaine buffer pH 4, 30 °C.
Text: as §1

Substrate in data set [4]: CCn1c(=NN=c2sc3cc(S(=O)(=O)O)ccc3n2CC)sc2cc(S(=O)(=O)O)ccc21
Kind of data set: purified protein. Format: biochemical, Lentinula edodes. The conditions noted are these: 1x McIlvaine buffer pH 4, 30 °C.

Substrate in data set [5]: COc1ccccc1O
Kind of data set: purified protein. As to conditions: 1x McIlvaine buffer pH 4, 30 °C.

Substrate in data set [6]: COc1cccc(OC)c1O
Kind of data set: spectrophotometric oxidation assay. As to conditions: 1x McIlvaine buffer pH 4, 30 °C. The class given is biochemical, Lentinula edodes. The source says: (§2) spectrophotometric oxidation assay on Lcc7
The source holds these as a separate data set.

Substrate in data set [7]: Oc1ccccc1O
Kind of data set: spectrophotometric oxidation assay. Format: biochemical, Lentinula edodes. The conditions noted are these: 1x McIlvaine buffer pH 4, 30 °C.
Text: as §2
The source holds these as a separate data set.

Substrate in data set [8]: N[C@@H](Cc1ccc(O)c(O)c1)C(=O)O
Kind of data set: spectrophotometric oxidation assay. Format: biochemical, Lentinula edodes. The conditions noted are these: 1x McIlvaine buffer pH 4, 30 °C. From the text:
(§3) spectrophotometric oxidation assay on Lcc5
The source holds these as a separate data set.

Substrate in data set [9]: COc1cccc(OC)c1O
Kind of data set: spectrophotometric oxidation assay. The class given is biochemical, Lentinula edodes. As to conditions: 1x McIlvaine buffer pH 4, 30 °C.
Text: as §3
This is another data set of the same source.

Substrate in data set [10]: Oc1ccccc1O
Kind of data set: spectrophotometric oxidation assay. The class given is biochemical, Lentinula edodes. As to conditions: 1x McIlvaine buffer pH 4, 30 °C.
Text: as §3
This is another data set of the same source.

Regarding `CCO` [EtOH], at Lcc7, the “IC50 ^d (v/v %) / EtOH” value was determined as 22 v/v %. Also, the “IC50 ^d (v/v %) / ACN” value at Lcc5 turned out to be 18 v/v %.

Consider `CC#N` [ACN], for which the figures for the “IC50 ^d (v/v %) / ACN” value on Lcc7, at Lcc5 and at Lcc4A were 17 v/v %, 18 v/v % and 30 v/v %, respectively.

As to `CO` [MeOH], the “IC50 ^d (v/v %) / MeOH” value on Lcc4A is given as 28 v/v %.

B1: Lcc4A (Lentinula edodes) (protein)
chain: T3 sequence (R9WT55 18-527)
notes: full cDNA ORF (527 residues) in pPIC3.5K, secreted from Pichia pastoris GS115 and purified; signal peptide predicted
The Km is the substrate concentration at which the rate is half of its maximum. A word on the Vmax: it is the top rate of the reaction or transport when substrate is in excess. Consider B1, for which the Km in data set [1] worked out at 1040 ± 150 µM; in data set [2], 26.0 ± 2.4 µM; in data set [3], 255 ± 76 µM; in the data set “purified protein [4]”, 11.2 ± 0.9 µM; in the data set “purified protein [5]” it was 648 ± 105 µM. In addition, the Vmax in data set [1] was 1.07 µmol/min/mg; in data set [2] it was 0.26 µmol/min/mg; in [3], 0.91 µmol/min/mg; in “purified protein [4]” it was 0.61 µmol/min/mg; in “purified protein [5]”, 0.16 µmol/min/mg. Also, the Vmax/Km in [1] was 1030 µL/min/mg; in data set [2], 10000 µL/min/mg; in [3], 3720 µL/min/mg; in “purified protein [4]” it was 54400 µL/min/mg; in the data set “purified protein [5]”, 246 µL/min/mg.

B2: Lcc7 (Lentinula edodes) (protein)
chain: T1 sequence (R9WS76 30-560)
notes: full cDNA ORF (560 residues) in pPIC3.5K, secreted from Pichia pastoris GS115 and purified; signal peptide predicted
On to B2, for which the Km in [6] is 12000 ± 1000 µM; in data set [7], 38800 ± 5300 µM; in “purified protein [4]”, 36.3 ± 1.9 µM; in the data set “purified protein [5]”, 8630 ± 2120 µM. In addition, the Vmax was found to be 1.73 µmol/min/mg in data set [6], 0.53 µmol/min/mg in data set [7], 19.7 µmol/min/mg in “purified protein [4]” and 0.18 µmol/min/mg in the data set “purified protein [5]”. Besides, the Vmax/Km amounted to 144 µL/min/mg in [6], 13.8 µL/min/mg in [7], 543000 µL/min/mg in the data set “purified protein [4]” and 21.4 µL/min/mg in the data set “purified protein [5]”.

B3: Lcc5 (Lentinula edodes) (protein)
chain: T2 sequence (R9WU11 22-515)
notes: full cDNA ORF (515 residues) in pPIC3.5K, secreted from Pichia pastoris GS115 and purified; signal peptide predicted
With B3, the Km in [8] is 10500 ± 700 µM; in data set [9], 113 ± 8 µM; in data set [10], 6280 ± 680 µM; in “purified protein [4]” it was 325 ± 47 µM; in the data set “purified protein [5]”, 1270 ± 90 µM. Besides, the Vmax in data set [8] amounted to 1.66 µmol/min/mg; in data set [9] it was 0.6 µmol/min/mg; in data set [10], 2.65 µmol/min/mg; in the data set “purified protein [4]”, 2.26 µmol/min/mg; in “purified protein [5]”, 0.32 µmol/min/mg. Also, the Vmax/Km in [8] stood at 158 µL/min/mg; in [9], 5300 µL/min/mg; in [10], 424 µL/min/mg; in the data set “purified protein [4]”, 6940 µL/min/mg; in the data set “purified protein [5]” it was 257 µL/min/mg.
